From article PMC3366936

The substances below were run against OPTN Δ1-394 in pCMV-BD (mammalian two-hybrid fusion) (UniProt Q96CV9) (assay: mammalian two-hybrid (luciferase reporter)). Conditions: HEK293 cells; 48 h after transfection; n = 3; parent: est. 6.5; read off a plot.
Set-up: unit not given here

Sequence of UniProt Q96CV9 (Q96CV9 395-577, stated change not applied): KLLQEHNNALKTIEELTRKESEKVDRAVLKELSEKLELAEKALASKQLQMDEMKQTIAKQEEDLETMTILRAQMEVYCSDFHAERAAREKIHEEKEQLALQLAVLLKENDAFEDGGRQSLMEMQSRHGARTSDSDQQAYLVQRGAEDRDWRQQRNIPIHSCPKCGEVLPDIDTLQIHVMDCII

Substance | response
E3-14.7K wild type in pCMV-AD (mammalian two-hybrid fusion) H42D; Q43Y; C44K; K45D; R46E | 0.1
E3-14.7K wild type in pCMV-AD (mammalian two-hybrid fusion) M38Y; V39K; N40D; L41E | 2.2
E3-14.7K wild type in pCMV-AD (mammalian two-hybrid fusion) H102D; F103Y; P104K; Y105D; Q106E | 11
E3-14.7K wild type in pCMV-AD (mammalian two-hybrid fusion) I12D; N13Y; T14K; E15D; Q16E | 4.6
E3-14.7K wild type in pCMV-AD (mammalian two-hybrid fusion) L7D; E8Y; L9K; G11E | 6
E3-14.7K wild type in pCMV-AD (mammalian two-hybrid fusion) E27D; R28Y; E29K; R30D; L31E | 4.5
E3-14.7K wild type in pCMV-AD (mammalian two-hybrid fusion) R17D; L18Y; L19K; E20D; R21E | 2.8
E3-14.7K wild type in pCMV-AD (mammalian two-hybrid fusion) R22D; K23Y; A24K; A25D; S26E | 2.9
E3-14.7K wild type in pCMV-AD (mammalian two-hybrid fusion) M82D; V83Y; G84K; E85D; K86E | 0.2
E3-14.7K wild type in pCMV-AD (mammalian two-hybrid fusion) P87D; I88Y; T89K; V90D; T91E | 0.6
E3-14.7K wild type in pCMV-AD (mammalian two-hybrid fusion) T62D; T63Y; T64K; G65D; N66E | 0.5
E3-14.7K wild type in pCMV-AD (mammalian two-hybrid fusion) T2D; E3Y; S4K; L5D; D6E | 5.1
